Key:
[1] = target: T1, hu(人)BCMA ECD His, ACRO, BCA-H522y (human, UniProt Q02223 1-54); assay: ELISA, hu BCMA ECD His coated at 2 μg/mL
T1 construct: extracellular domain; Bought reagent; also called hu BCMA ECD His; BCMA抗原; not shown: His tag
T1 sequence (looked up): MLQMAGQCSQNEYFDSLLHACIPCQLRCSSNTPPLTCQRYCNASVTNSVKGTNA

[2] = target: T2, 人BCMA全长 (K562-BCMA细胞株和CHO-BCMA细胞株表面表达) (human, UniProt Q02223 1-184); assay: flow cytometry on K562-BCMA and CHO-BCMA cells, APC anti-human IgG Fc
T2 construct: whole, on cells; also called BCMA表达阳性的细胞
T2 sequence (looked up): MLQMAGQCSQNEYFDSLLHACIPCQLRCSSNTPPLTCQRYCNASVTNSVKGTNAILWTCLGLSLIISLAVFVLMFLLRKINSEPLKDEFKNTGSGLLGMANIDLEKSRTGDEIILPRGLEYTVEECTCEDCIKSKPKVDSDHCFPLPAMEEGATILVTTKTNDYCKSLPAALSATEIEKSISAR

h BCMA ECD mFc = target: T3, h BCMA ECD mFc (human, UniProt Q02223 1-54); assay: BLI (Fortebio), h BCMA ECD mFc 3 ug/mL loaded on AMC biosensor, antibody in solution
T3 construct: extracellular domain; also called hBCMA-mFc; not shown: mouse Fc (mFc)
T3 sequence (looked up): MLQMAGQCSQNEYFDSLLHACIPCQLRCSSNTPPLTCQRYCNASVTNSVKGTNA

Measured: binding result

B1: 鼠源BCMA抗体 mVH-mVL (CN201911298620.7专利中5E2 BCMA抗体) (antibody, V domains shown)
VH: EVQLQQSGPELIKPGASVKMSCKASGYTFTSYVVHWVKQKPGQGLEWIGYIIPYNDDTKYNEKFKGKATLTSDKSSSTAYMELSSLTSEDSAVYYCARWDYDDGYFDYWGQGTTLTVSS
VL: DVVMTQTPLSLPVTLGDQASISCRSSQSLLHSNGNTYLHWYLQKPGQSPKLLIYKVSNRFSGVPDRFSGSGSGTDFTLKISRVEAEDLGVYFCSQITHIPFTFGSGTKLEIKR
notes: In flow cytometry the detection reagent was APC anti-human IgG Fc
binds: all assays above

From patent CN114634568A (SHENZHEN PHENPENG BIOTHERAPY CO LTD, dated 2022)
